{"source": "paper PMC8423076", "molecular_target": "SARS-CoV-2 receptor-binding domain (RBD) homodimer (SARS-CoV-2) (UniProt P0DTC2)", "test": "reducing and non-reducing SDS-PAGE"}
{"substance": "SARS-CoV-2 receptor-binding domain (RBD) homodimer (from UniProt P0DTC2 319-541) (domain or fragment)", "values": [{"measurement": "stoichiometry N", "result": 2}]}
